# In patent US9121022B2, “Method for controlling herbicide-resistant plants” (priority 2010, dated 2015):
# Key:
# Format in all cases: in vivo
# [1] = system: Glyphosate-resistant Palmer amaranth plants having 49 or 63 copies EPSPS; experiment: salicylic acid pretreatment before dsRNA and glyphosate (Example 15); settings: 15 millimolar SA 1, 5, or 24 hours before dsRNA; 7 days after glyphosate
# Procedure: Salicylic acid (SA) induces virus resistance in tobacco; see, e.g., Chivasa et al. (1997) Plant Cell, 19:547-557. Glyphosate-resistant Palmer amaranth plants having 49 or 63 copies EPSPS were pretreated with 15 millimolar SA. A solution of the four oligonucleotide-size “short” EPSPS dsRNA molecules (described in Example 1) was applied by hand at 1, 5, or 24 hours after treatment with SA, followed 72 hours later by spraying with glyphosate (1682 g acid equivalent per hectare of Roundup® WeatherMAX® brand herbicide).
# [2] = system: glyphosate-resistant Palmer amaranth plants having 16 copies of EPSPS; experiment: EPSPS tiling-segment polynucleotides, plant height 11 days after herbicide (Example 21); settings: 0.01 nanomole DNA/plant; glyphosate 840 g ae/ha 48 hours later
# From the text: Twelve dsRNAs of approximately 250 bp each and having one strand of the dsRNA corresponding to the EPSPS tiled DNA sequences of SEQ ID NOS:41-52 (Table 8) were designed to cover in a tiling fashion the full coding sequence and part of the 5′ and 3′ untranslated regions of the Palmer amaranth EPSPS gene, as depicted in FIG. 25A.
# The four oligonucleotide-size “short” EPSPS dsRNA molecules as described in Example 1 and FIG. 1 are located in the tiling segments 2, 3, 4, and 8 respectively, and are shown as light grey bars within those segments. The polynucleotides were synthesized in vitro transcription using a pBR322 vector with the EPSPS polynucleotides inserted at EcoRI and BamHI cloning sites; plasmid DNA was isolated with Qiagen Maxi prep kits and digested with EcoRI and BamHI restriction enzymes. The digested DNA solution was used in the treatment of the plants without further purification. […]
# [3] = system: Glyphosate-sensitive Palmer amaranth (Amaranthus palmeri) plants; experiment: HPPD, PPO and TIF anti-sense ssDNA with mesotrione, fomesafen or atrazine, plant height (Example 28, Tables 18 and 19); settings: four days after herbicide treatment
# Procedure: The herbicidal activity of ssDNA polynucleotides that target the enzymes […] and protoporphyrinogen oxidase (PPO), and a transcription initiation factor (TIF), and their effect on the herbicide activity when used in combination with the herbicides mesotrione, fomesafen, and atrazine in Palmer amaranth was investigated.
# Glyphosate-sensitive Palmer amaranth (Amaranthus palmeri) plants were grown in 4-inch square pots with Sun Gro® Redi-Earth seedling mix containing 3.5 kg/cubic meter Osmocote® 14-14-14 fertilizer in a greenhouse with 14 h photoperiod and a daytime temperature of 30 degrees Celsius and night temperature of 20 degrees Celsius. The plants were sub-irrigated as necessary.
# Some plants were left untreated and were used as controls. […] Crop oil concentrate (COC) at 1% was added to all herbicide treatments.
# Plant height was determined at four days after herbicide treatment. Data were collected from one experiment with four replications per treatment.
# [4] = system: phytoene desaturase (PDS) gene in tomato (Solanum lycopersicum); experiment: topical PDS dsRNA on tomato, bleaching and stunting (Example 25); settings: 2.5 micromolar, 40 microliters per plant
# From the text: A 201 nucleotide dsRNA polynucleotide with an anti-sense strand capable of hybridizing to the RNA encoded by the sequence […] […] […] (SEQ ID NO:60) which correspond to the nucleotides at positions 1724-1923 of the mRNA transcribed from the tomato PDS gene sequence (SEQ ID NO:59) was synthesized by RT PCR using oligonucleotide primers with the sequences […] (SEQ ID NO:61, sense primer) and […] (SEQ ID NO:62, anti-sense primer). A 2.5 micromolar dsRNA solution was made with the 201 nucleotide dsRNA polynucleotide (SEQ ID NO:60) in 0.01% SILWET L-77® brand surfactant in 5 millimolar sodium phosphate buffer, pH 6.8.
# Three-week old tomato seedlings were treated as follows. Two fully expanded leaves were dipped into a freshly made 0.1% SILWET L-77® brand surfactant solution in double-distilled water for a few seconds. The leaves were allowed to dry for 30 minutes to 1 hour. Each plant was then treated by applying 20 microliters dsRNA solution to the top surface of two SILWET® brand surfactant-treated leaves (total 40 microliters per plant). Control plants were treated with buffer. The plants were kept in a growth chamber for observation. FIG. 30 depicts the systemic silencing of the target gene PDS as evidenced by bleaching of the dsRNA-treated plants 30 days after topical treatment.
molecule,measurement,setting,value
O=C(O)c1ccccc1O [Salicylic acid],improvement of the effects of the dsRNAs and glyphosate activity (plant height),[1],No improvement
"combination of tiling segments 2, 5, 8, and 11: SEQ ID NOS: 42, 45, 48, 51 applied together (nucleic acid, listed as Amaranthus palmeri) chain 1: CACCAACCCACTTTCTCTTTGCCCACCAAAACTTTGGTTTGGTAAGAACTAAGCCCTCTTCTTTCCCTTCTCTCTCTTAAAAGCCTAAAATCCACCTAACTTTTTCAGCCAACAAACAACGCCAAATTCAGAGGAAGAATAATGATGGCTCAAGCTACTACCATCAACAATGGTGTCCATACTGGTCAATTGCACCATACTTTACCCAAAACCCAGTTACCCAAATCTTCAAAAACTCTTAATT chain 2: GAGGGTTGTGGTGGTCTGTTTCCTGTTGGTAAAGATGGAAAGGAAGAGATTCAACTTTTCCTTGGTAATGCAGGAACAGCGATGCGCCCATTGACAGCTGCGGTTGCCGTTGCTGGAGGAAATTCAAGTTATGTGCTTGATGGAGTACCAAGAATGAGGGAGCGCCCCATTGGGGATCTGGTAGCAGGTCTAAAGCAACTTGGTTCAGATGTAGATTGTTTTCTTGGCACAAATTGCCCTCCTGTTCGGG chain 3: ACAAGCAGTTTACAGGGTGATGTAAAATTTGCCGAAGTTCTTGAGAAGATGGGTTGCAAGGTCACCTGGACAGAGAATAGTGTAACTGTTACTGGACCACCCAGGGATTCATCTGGAAAGAAACATCTGCGTGCTATCGACGTCAACATGAACAAAATGCCAGATGTTGCTATGACTCTTGCAGTTGTTGCCTTGTATGCAGATGGGCCCACCGCCATCAGAGATGTGGCTAGCTGGAGAGTGAAGGAAA chain 4: TAATTATGAAATTCTTTGTATTATGTTTGTGAGATTTGAAGTAGCTTATAAATTACAATGTACTAAAGTCTAGAAATAAGTTATGTATCTTTTAAATCAATGAGAAATGCATACTTGAAAGGCTTGACCTTGTATTTGTGACCTAAAGAGTACTAACTTTGGAGTTTCCAACTCATTTGTTTATCTCATTTTTTTTTAATTTTTGATTTAAATTGTTTATTTTTATGAGTAATCATGTATCTTTCTTATTCTAACCAAATGTAATACTCCTTC","efficacy (above-ground height 11 days after herbicide; FIGS. 25B, 25C)",[2],greatest efficacy
"combination of tiling segments 7, 8, and 9: SEQ ID NOS: 47, 48, 49 applied together (nucleic acid, listed as Amaranthus palmeri) chain 1: TTGAAATGACAATAAAGTTGATGGAACGCTTTGGAGTATCCGTAGAACATAGTGATAGTTGGGACAGGTTCTACATTCGAGGTGGTCAGAAATACAAATCTCCTGGAAAGGCATATGTTGAGGGTGATGCTTCAAGTGCTAGCTACTTCCTAGCCGGAGCCGCCGTCACTGGTGGGACTGTCACTGTCAAGGGTTGTGGAACAAGCAGTTTACAGGGTGATGTAAAATTTGCCGAAGTTCTTGAGAAGAT chain 2: ACAAGCAGTTTACAGGGTGATGTAAAATTTGCCGAAGTTCTTGAGAAGATGGGTTGCAAGGTCACCTGGACAGAGAATAGTGTAACTGTTACTGGACCACCCAGGGATTCATCTGGAAAGAAACATCTGCGTGCTATCGACGTCAACATGAACAAAATGCCAGATGTTGCTATGACTCTTGCAGTTGTTGCCTTGTATGCAGATGGGCCCACCGCCATCAGAGATGTGGCTAGCTGGAGAGTGAAGGAAA chain 3: AGATGGGCCCACCGCCATCAGAGATGTGGCTAGCTGGAGAGTGAAGGAAACCGAACGGATGATTGCCATTTGCACAGAACTGAGAAAGCTTGGGGCAACAGTTGAGGAAGGATCTGATTACTGTGTGATCACTCCGCCTGAAAAGCTAAACCCCACCGCCATTGAAACTTATGACGATCACCGAATGGCCATGGCATTCTCTCTTGCTGCCTGTGCAGATGTTCCCGTCACTATCCTTGATCCGGGATGC","efficacy (above-ground height 11 days after herbicide; FIGS. 25B, 25C)",[2],greatest efficacy
"HPPD anti-sense ssDNA oligonucleotides: 8 HPPD anti-sense ssDNA oligonucleotides (SEQ ID NOS:141-148) (nucleic acid, DNA, backbone and methylation of C not given here) antisense 1: TCCGTAGCTTACATACCGAAG antisense 2: TCCAAGTGAATAGGAGAAACA antisense 3: AGCAGCTTCTGCGTCTTCTAC antisense 4: ACAGCACGCACGCCAAGACCG antisense 5: CGATGTAAGGAATTTGGTAAA antisense 6: CGAGGGGATTGCAGCAGAAGA antisense 7: GTAGGAGAATACGGTGAAGTA antisense 8: GACCCCAAGAAAATCGTCTGC",growth reduction relative to the buffer-surfactant control,[3],32%
201 nucleotide dsRNA polynucleotide: dsRNA to positions 1724-1923 of tomato PDS mRNA (SEQ ID NO:59) (nucleic acid) TCGCAGCGACTCAGAAATTATTGATGCAACGATGAAGGAACTAGCAACGCTTTTTCCTGATGAAATTTCAGCAGATCAAAGCAAAGCAAAAATATTGAAGTACCATGTTGTCAAAACTCCGAGGTCTGTTTATAAAACTGTGCCAGGTTGTGAACCCTGTCGGCCTTTACAAAGATCCCCAATAGAGGGGTTTTATTTAG,growth compared to control plants,[4],severely stunted
same,systemic silencing of PDS (FIG. 30),[4]; 30 days after treatment,bleaching
